How the values were obtained:
[1] = target: human CEACAM1-Fc (extracellular domains N-A1-B1-A2 fused to a human heavy chain Fc-domain) (human) (UniProt P13688)
[2] = target: CEACAMs endogenously expressed on AGS gastric cancer cells (CEACAM1, CEACAM5 and CEACAM6); assay: cell-based or functional assay
[3] = target: CEACAM6 on transfected CHO cells (human) (UniProt P40199); assay: flow cytometry; CHO transfectant 'CEACAM6' with HopQ as in Fig. 6 b; number in the panel = median; untransfected CHO with HopQ: 6 [cont.) c]
[4] = target: human CEACAM1 (hu-CEACAM1-4L) on stably transfected CHO cells (human) (UniProt P13688); assay: flow cytometry; CHO transfectant 'CEACAM1' with HopQ as in Fig. 6 b; number in the panel = median; untransfected CHO with HopQ: 6 [cont.) c]
[5] = target: human CEACAM1 (hu-CEACAM1-4L) on stably transfected CHO cells (human) (UniProt P13688); assay: flow cytometry; CHO-CEACAM1 cells with myc-His-tagged HopQ, anti c-myc mAb, FITC goat anti-mouse F(ab')2; thin line: control IgG; number in the panel = median
[6] = target: CEACAM5 on transfected CHO cells (human) (UniProt P06731); assay: flow cytometry; CHO transfectant 'CEACAM5' with HopQ as in Fig. 6 b; number in the panel = median; untransfected CHO with HopQ: 6 [cont.) c]
[7] = target: CEACAMs endogenously expressed on AGS gastric cancer cells (CEACAM1, CEACAM5 and CEACAM6); assay: flow cytometry; AGS cells with myc-His-tagged HopQ, anti c-myc mAb, FITC goat anti-mouse F(ab')2; thin line: control IgG; number in the panel = median
[8] = target: CEACAM3 on transfected CHO cells (human) (UniProt P40198); assay: flow cytometry; CHO transfectant 'CEACAM3' with HopQ as in Fig. 6 b; number in the panel = median; untransfected CHO with HopQ: 6 [cont.) c]
[9] = target: CEACAM7 on transfected CHO cells (human) (UniProt Q14002); assay: flow cytometry; CHO transfectant 'CEACAM7' with HopQ as in Fig. 6 b; number in the panel = median; untransfected CHO with HopQ: 6 [cont.) c]
[10] = target: CEACAM8 on transfected CHO cells (human) (UniProt P31997); assay: flow cytometry; CHO transfectant 'CEACAM8' with HopQ as in Fig. 6 b; number in the panel = median; untransfected CHO with HopQ: 6 [cont.) c]
[11] = target: CEACAMs endogenously expressed on MKN45 gastric cancer cells (CEACAM1, CEACAM5 and CEACAM6); assay: flow cytometry; MKN45 cells with myc-His-tagged HopQ, anti c-myc mAb, FITC goat anti-mouse F(ab')2; thin line: control IgG; number in the panel = median
[12] = target: CEACAM4 on transfected CHO cells (human) (UniProt O75871); assay: flow cytometry; CHO transfectant 'CEACAM4' with HopQ as in Fig. 6 b; number in the panel = median; untransfected CHO with HopQ: 6 [cont.) c]
[13] = target: T1, human CEACAM1-Fc (extracellular domains N-A1-B1-A2 fused to a human heavy chain Fc-domain) (human, UniProt P13688 35-428); assay: pull-down of live bacteria with CEACAM-Fc; western blot and flow cytometry with α-hu-IgG-FITC [cont.) c]
T1 construct: extracellular domain; Made in HEK293 cells; also called hu-CEACAM1-Fc; not shown: human heavy chain Fc-domain
T1 sequence: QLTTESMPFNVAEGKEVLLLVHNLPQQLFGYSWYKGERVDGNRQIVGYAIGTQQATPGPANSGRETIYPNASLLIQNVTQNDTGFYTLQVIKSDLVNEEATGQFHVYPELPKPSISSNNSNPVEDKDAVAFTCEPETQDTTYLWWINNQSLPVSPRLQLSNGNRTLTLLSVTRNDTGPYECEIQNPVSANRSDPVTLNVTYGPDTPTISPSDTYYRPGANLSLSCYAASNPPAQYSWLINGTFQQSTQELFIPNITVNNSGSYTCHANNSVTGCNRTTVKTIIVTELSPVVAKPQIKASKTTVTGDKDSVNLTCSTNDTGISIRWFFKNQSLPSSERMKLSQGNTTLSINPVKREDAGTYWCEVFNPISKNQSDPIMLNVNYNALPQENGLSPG

[14] = target: T2, recombinant human CEACAM5-Fc (Sino Biological Inc.) (human, UniProt P06731 35-685); assay: as above
T2 construct: also called hu-CEACAM5-Fc; not shown: Fc part of the bought fusion; not described
T2 sequence: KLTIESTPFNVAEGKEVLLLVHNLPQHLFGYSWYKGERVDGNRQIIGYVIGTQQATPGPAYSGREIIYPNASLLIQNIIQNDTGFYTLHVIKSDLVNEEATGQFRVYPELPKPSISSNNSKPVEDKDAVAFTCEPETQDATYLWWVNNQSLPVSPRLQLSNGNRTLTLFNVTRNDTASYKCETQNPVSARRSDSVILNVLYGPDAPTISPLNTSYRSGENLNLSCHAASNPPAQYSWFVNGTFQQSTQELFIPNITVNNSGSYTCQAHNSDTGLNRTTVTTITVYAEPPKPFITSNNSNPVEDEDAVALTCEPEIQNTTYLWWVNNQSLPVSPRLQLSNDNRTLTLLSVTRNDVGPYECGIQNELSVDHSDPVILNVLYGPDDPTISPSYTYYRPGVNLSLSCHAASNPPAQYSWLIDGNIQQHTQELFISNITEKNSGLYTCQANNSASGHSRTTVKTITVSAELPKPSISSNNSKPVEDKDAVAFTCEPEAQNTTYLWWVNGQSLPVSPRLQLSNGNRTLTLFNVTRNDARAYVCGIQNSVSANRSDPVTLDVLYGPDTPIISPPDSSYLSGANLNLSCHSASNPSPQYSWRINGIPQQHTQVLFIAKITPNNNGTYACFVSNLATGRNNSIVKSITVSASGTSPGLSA

[15] = target: T3, human CEACAM6-Fc (extracellular domains N-A-B fused to a human heavy chain Fc-domain) (human, UniProt P40199 35-320); assay: as above
T3 construct: extracellular domain; Made in HEK293 cells; also called hu-CEACAM6-Fc; not shown: human heavy chain Fc-domain
T3 sequence: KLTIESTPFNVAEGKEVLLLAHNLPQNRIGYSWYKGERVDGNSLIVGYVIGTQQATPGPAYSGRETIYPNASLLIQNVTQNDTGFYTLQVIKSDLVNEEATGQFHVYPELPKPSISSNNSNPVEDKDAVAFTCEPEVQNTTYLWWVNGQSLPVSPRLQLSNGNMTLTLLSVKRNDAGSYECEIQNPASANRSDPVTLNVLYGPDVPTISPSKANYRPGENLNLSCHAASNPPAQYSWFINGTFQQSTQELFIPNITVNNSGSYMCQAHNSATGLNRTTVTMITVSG

Chain of CEACAM4 on transfected CHO cells (human) (O75871 36-244): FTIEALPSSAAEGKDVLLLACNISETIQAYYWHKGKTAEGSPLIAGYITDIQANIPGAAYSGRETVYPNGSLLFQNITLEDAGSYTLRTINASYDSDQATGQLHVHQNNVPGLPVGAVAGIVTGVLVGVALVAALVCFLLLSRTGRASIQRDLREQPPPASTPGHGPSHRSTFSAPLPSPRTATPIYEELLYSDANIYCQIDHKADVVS
Chain of CEACAM3 on transfected CHO cells (human) (P40198 35-252): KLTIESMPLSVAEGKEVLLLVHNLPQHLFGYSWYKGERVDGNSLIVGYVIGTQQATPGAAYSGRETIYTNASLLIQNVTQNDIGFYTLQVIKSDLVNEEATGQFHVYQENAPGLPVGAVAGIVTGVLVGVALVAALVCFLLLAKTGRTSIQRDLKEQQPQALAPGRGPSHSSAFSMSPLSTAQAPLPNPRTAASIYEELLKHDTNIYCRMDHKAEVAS
Chain of CEACAM7 on transfected CHO cells (human) (Q14002 36-242): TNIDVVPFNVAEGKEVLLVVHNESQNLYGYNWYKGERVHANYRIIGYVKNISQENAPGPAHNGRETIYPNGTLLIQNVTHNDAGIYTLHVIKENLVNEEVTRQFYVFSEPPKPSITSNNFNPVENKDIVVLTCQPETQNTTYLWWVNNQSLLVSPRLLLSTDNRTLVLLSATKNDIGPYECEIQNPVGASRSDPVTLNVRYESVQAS
Chain of CEACAM8 on transfected CHO cells (human) (P31997 35-320): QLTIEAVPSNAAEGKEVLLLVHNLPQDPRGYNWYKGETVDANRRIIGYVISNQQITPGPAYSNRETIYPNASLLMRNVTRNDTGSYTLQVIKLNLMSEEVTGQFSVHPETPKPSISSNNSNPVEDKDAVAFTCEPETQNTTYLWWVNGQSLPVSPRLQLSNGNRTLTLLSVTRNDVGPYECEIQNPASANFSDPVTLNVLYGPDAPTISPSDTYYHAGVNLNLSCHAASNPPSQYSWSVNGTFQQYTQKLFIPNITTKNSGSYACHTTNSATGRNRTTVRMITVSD

## Outer membrane protein hopC
[1]
  Score (Sequest): 14.4

## Outer membrane protein sabB
[1]
  Score (Sequest): 23.4

## HopQ insertion domain (HopQ-ID) representing peptide (aa 190-218), HA-tagged, synthetic
[2]
  P12-induced phosphorylation of CagA, concentration needed against HopQ^AD (fold higher concentration than HopQ^AD): 10 to 20

## Outer membrane protein babA
[1]
  Score (Sequest): 8

## H. pylori strain P12 derived, myc and 6x His-tagged recombinant HopQ
[3]
  median relative fluorescence (FL1-H): 12
[4]
  median relative fluorescence (FL1-H): 63
[5]
  median relative fluorescence (FL1-H): 18
[6]
  median relative fluorescence (FL1-H): 136
[7]
  median relative fluorescence (FL1-H): 32
[8]
  median relative fluorescence (FL1-H): 18
[9]
  median relative fluorescence (FL1-H): 6
[10]
  median relative fluorescence (FL1-H): 6
[11]
  median relative fluorescence (FL1-H): 155
[12]
  median relative fluorescence (FL1-H): 6

## Outer membrane protein hopZ
[1]
  Score (Sequest): 31.7

## Outer membrane protein sabA
[1]
  Score (Sequest): 6.66

B1: HopQ of H. pylori strain P12, on live wild-type bacteria (compared with the isogenic P12ΔhopQ mutant) (other)
chain: AEDNGVFLSVGYQIGEAVQKVKNADKVQKLSDTYEQLSRLLTNDNGTNSKTSAQAINQAVNNLNERAKTLAGGTTNSPAYQATLLALRSVLGLWNSMGYAVICGGYTKSPGENNQKNFHYTDENGNGTTINCGGSTNSNGTHSSNGTNTLKADKNVSLSIEQYEKIHESYQILSKALKQAGLAPLNSKGEKLEAHVTTSKYQQDSQTKTTTSVIDTTNDAQNLLTQAQTIVNTLKDYCPMLIAKSSSGSGGGAATNTPSWQTAGGGKNSCETFGAEFSAASDMINNAQKIVQETQQLSANQPKNITQPHNLNLNTPSSLTALAQKMLKNAQSQAEILKLANQVESDFNKLSSGHLKDYIGKCDMSAISSTNMTMQSQKNNWGNGCAGVEETLTSLKTSAADFNNQTPQINQAQNLANTLIQELGNNPFRNMGMIASSTTNNGALNGLGVQVGYKQFFGEKKRWGLRYYGFFDYNHAYIKSNFFNSASDVWTYGVGSDLLFNFINDKNTNFLGKNNQISFGLFGGIALAGTSWLNSQFVNLKTISNVYSAKVNTANFQFLFNLGLRTNLARPKKKDSHHAAQHGIELGVKIPTINTNYYSFLDTKLEYRRLYSVYLNYVFAY
[13]
  binding result: binds
[14]
  binding result: binds
[15]
  binding result: binds

Reference: patent US20210008207A1 (TECHNISCHE UNIVERSIT T M NCHEN, published 2021)
